Target: the molecule itself
Assay: SAXS; nucleotide-free KaiC monomer (1.69 mg/ml) mixed with P-buffer containing ATP to 1 mM final; curve taken at 30°C 6 min after addition of ATP; monomer to hexamer

B1: KaiC (natural protein, UniProt Q79PF4 1-519, looked up)
chain: MTSAEMTSPNNNSEHQAIAKMRTMIEGFDDISHGGLPIGRSTLVSGTSGTGKTLFSIQFLYNGIIEFDEPGVFVTFEETPQDIIKNARSFGWDLAKLVDEGKLFILDASPDPEGQEVVGGFDLSALIERINYAIQKYRARRVSIDSVTSVFQQYDASSVVRRELFRLVARLKQIGATTVMTTERIEEYGPIARYGVEEFVSDNVVILRNVLEGERRRRTLEILKLRGTSHMKGEYPFTITDHGINIFPLGAMRLTQRSSNVRVSSGVVRLDEMCGGGFFKDSIILATGATGTGKTLLVSRFVENACANKERAILFAYEESRAQLLRNAYSWGMDFEEMERQNLLKIVCAYPESAGLEDHLQIIKSEINDFKPARIAIDSLSALARGVSNNAFRQFVIGVTGYAKQEEITGLFTNTSDQFMGAHSITDSHISTITDTIILLQYVEIRGEMSRAINVFKMRGSWHDKAIREFMISDKGPDIKDSFRNFERIISGSPTRITVDEKSELSRIVRGVQEKGPES
stoichiometry N: 6.05 ± 0.08 fold

Reference: paper PMC4736791 (Biophysics, 2015)
